Molecular target: full-length GST-Smad3 (UniProt P84022)
Test: pull-down

Chain of UniProt P84022 (P84022 whole entry): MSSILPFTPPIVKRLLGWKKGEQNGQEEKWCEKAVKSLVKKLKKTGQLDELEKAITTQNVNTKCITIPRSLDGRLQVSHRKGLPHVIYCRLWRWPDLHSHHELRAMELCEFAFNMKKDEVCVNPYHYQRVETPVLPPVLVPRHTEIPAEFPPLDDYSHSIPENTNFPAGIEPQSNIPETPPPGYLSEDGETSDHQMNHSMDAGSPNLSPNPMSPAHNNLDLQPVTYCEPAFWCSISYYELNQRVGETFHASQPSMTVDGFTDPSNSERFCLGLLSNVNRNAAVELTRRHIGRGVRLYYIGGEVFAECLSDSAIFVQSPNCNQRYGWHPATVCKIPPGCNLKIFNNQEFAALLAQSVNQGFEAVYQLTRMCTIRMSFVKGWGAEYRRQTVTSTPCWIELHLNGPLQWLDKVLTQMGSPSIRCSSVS

intracellular Notch1 (ICN1), the active form of Notch1 (domain or fragment)
fold increase of binding in β2SP shRNA cells against control cells: 2 fold

From paper PMC3745222
